Test results published in US8846363B2, “Compositions of and methods of using sulfatases from Flavobacterium heparinum” (priority 2007, dated 2014).
Each block holds one molecule with its values, some of them ahead of it.

How the values were obtained:
[1] = CE-LIF detection of sequentially degraded oligosaccharides; assay type: biochemical; settings: after Δ4,5 glycuronidase treatment of ΔUHNSIHNSIHNS
Experimental: The APTS derivitization protocol was adapted from Chen et al. (Chen F. T. A., and Evangelista R. A. (1995) Analytical Biochemistry 230, 273-280). Briefly, 2 μl of 100 mM 9-aminopyrene-1,4,6-trisulfonate (APTS) in 25% acetic acid (v/v) were mixed with 10 μl of 1M sodium cyanoborohydride in tetrohydrofuran and 1 μmol of saccharide. The reaction mixture was incubated at 75° C. for 2 hr and was diluted 1:100 prior to CE analysis. CE-LIF was performed on a Beckman Coulter ProteomeLab PA 800 with 488 nm argon LIF module. Samples were loaded onto a N—CHO capillary (50 μm I.D.×65 cm total length) using 0.5 psi of pressure at the anode for 20 sec. Electrophoretic separations were performed using a 20 kV potential in a 100 mM sodium borate, pH 10.2 buffer for 15 min at 25° C. Fluorescence emission spectra were collected using a 520 nm narrow band filter.

[2] = Desulfation of unsaturated heparin disaccharides by capillary electrophoresis; assay type: biochemical; settings: ΔU±2SHNAc,6S, ΔU±2SHNS,6S (6-O-sulfatase); ΔU±2SHNS+6S (N-sulfamidase)
Experimental: The ability of both enzymes to desulfate unsaturated heparin and chondroitin disaccharides was assessed essentially as described for capillary electrophoresis based compositional analyses of enzymatically generated glycosaminoglycan di- and tetra-saccharides (Venkataraman et al., 1999 Science 286, 537-542). For these studies, the following disaccharide substrates were tested: ΔUGlcNAc,6S; ΔU2SGlcNAc,6S; ΔUGlcNS; ΔUGlcNS,6S; ΔU2SGlcNS,6S; and ΔUGalNac,6S. Reactions included 500 μM substrate, 10 μM enzyme, 50 mM sodium acetate, pH 6.5 and +/−2 mM CaCl2 in a 20 μL reaction volume.

[3] = Storage stability of purified enzymes; assay type: physicochemical; settings: 4° C., ~10 mg/mL
Experimental: Final protein concentrations were determined colorimetrically using the Bradford Assay (Bio-Rad, Hercules, Calif.) and confirmed by UV absorption spectroscopy using theoretical molar extinction coefficients (ε280) of 94,730 M^−1 (61,572 Da) and 86,340 (53,193 Da) for the NH2-terminally truncated ORF B (6-O-sulfatase) and ORF C(N-sulfamidase), respectively. These values were calculated for thrombin-cleaved proteins lacking a 6×His purification tag. Enzymes were stored at 4° C. at a concentration of ˜10 mg/mL.

[4] = Coupled 6-O-sulfatase/β-glucosidase fluorimetric plate assay (reaction conditions, steady-state kinetics); assay type: biochemical
Excerpt: Indirect measurement of enzyme activity was also made using a fluorimetrically-based plate assay in which the prerequisite desulfation of the appropriate glucopyranoside 1→4 methlybelliferone substrate by either the 6-O-sulfatase or N-sulfamidase was coupled to the glucosidase-mediated hydrolysis of the stereo-specific 1→4 glycosidic linkage between the pyranose ring and the adjoining fluorophore. Release of the free fluorophore (4-MU) was monitored spectroscopically as described above for the arylsulfatase assay using 4-MU sulfate. The two sulfatase assays differed in the choice of substrate in accordance to their specificity as well as the glucosidase added during the second, […] step. For the 6-O-sulfatase, the hydrolysis of the substrate 4-MU-β-D-GlcNAc,6S at the 6-OH position was coupled to β-glucosidase purified from sweet almonds (MP Biomedicals, Solon, Ohio, Catalog No. 195197). Likewise, N-sulfamidase hydrolysis of 4-MU-α-D-GlcNS at the 2-amino position was coupled to α-glucosidase (MP Biomedicals, Catalog No. 153487). […] The presumption of the first (sulfatase) activity being the rate-limiting step was established experimentally. Reaction conditions were optimized to satisfy three related criteria: 1) linear readout of fluorescent signal which is directly proportional to sulfatase activity; 2) quantitative release of 4-MU by glucosidase activity under every biochemical condition examined and; 3) negligible fluorescent quenching of the free chromophore.
For the 6-O-sulfatase/β-glucosidase assay, the standard reaction conditions included 2 μM recombinant enzyme, 50 mM sodium acetate buffer, pH 5.5, and 5 mM CaCl2 in a 20 μl reaction volume. 4-MU-GlcNAc,6S substrate concentration was varied from 0.1-2 mM. 2 μL of enzyme were added to each well of a microtiter plate (prechilled on ice), plate gently vortexed, and contents of each well spun down for 1 minute at 500×g, 4° C. […] Reactions were transferred to a black 96 well, flat-bottom FIA-plate and fluorescence measured as described above for the detection of free 4-MU. […]

B1: Flavobacterium heparinum N-sulfamidase (ORF C), recombinant, NH2-terminal truncation lacking signal sequence, SEQ ID NO: 4 (Pedobacter heparinus DSM 2366) (protein)
chain: SCTSPEKKTDRPNILMIMSDNQSWNHVGSYGDQTVRTPNMDRIAKEGVRFTNAFCSSPSCTPARAGMLTGQDIWRLEDGGNLWGVLPVKYKVYPDLLEEAGYAIGFQGKGWGPGSFEANKRPRNPAGNEFKSFGAFLKDKKEGPWCYWISSHEPHRPYVEGSGEKAGIDPNKVKVPAYLPDHISIRKDIADYYAAVETFDRELGEALDQLKASGELDNTVIVVCSDNGWQMPRGLANLYDFGTHVPLIISWPGKFKQDVVADNLVTLNDLAPTFLQLGKVPVPADMTGKSLLPIVEAGKKDEKPRDYVVLGRERHAFVRRHGLGYPGRAIRTKDYLYIKNYEPNRWPAGDPPFYGDIDPYMFNWPGETKYYLIEHKDDPKVKSFFELGMGKRPAEELFDINKDPDELHNLAALPEYQKIKQELVAKLRNYLVATKDPRETNGNIQIWDTAAYFSEIDKTPKPSKEMQKRFKLDSSYNYLK
notes: E. coli BL21(DE3), N-terminal 6xHis removed by thrombin
- desulfation of oligosaccharide at the non-reducing end [1]: does desulfate some oligosaccharides in an exolytic fashion
- desulfation of unsaturated heparin disaccharides [2]: None of the unsaturated disaccharides were desulfated
- retention of enzyme activity on storage [3]: Full enzyme activity was retained for several months

- effect of Mg^+2 or Mn^+2 on activity ([4]; 1 mM or 5 mM divalent metal): only negligible effects
- activation by the presence of calcium ([4]; calcium added): 2-3 fold
B2: Flavobacterium heparinum 6-O-sulfatase (ORF B), recombinant, NH2-terminal truncation lacking signal sequence, SEQ ID NO: 2 (Pedobacter heparinus DSM 2366) (protein)
chain: TLMSCQQPKPAESAKRPNIVFIMTDDHTIQAISAYGSKLVKTPNLDRIANEGMLFNNCFVTNAVCGPSRATILTGKYSHLNGLTDNSKVFDSTQVIYPQLLKKAGYQTAMIGKWHLGSTPMGFDYYSILPNQGQYYQPEFIENGHLVKEKGYVTDLITDKAIGFLEKRDHDKPFLMIYQHKAPHRNWLPAPRHLGMFDDTVFPEPANLLDDFKGRGRAAKEQLMNISTDMWPAWDLKMLSTAQLDSMAKLPVSPKFKDAKGDDYQQANDPSLDKARFFEVYNRMTDAEKVQWRKVYDKRVAEFKRLNPKGADLVRWKYQQYMRDYLACVVSVDENVGRLMDYLKKIGELDNTIIVYTSDQGFYLGEHGYFDKRFMYDESFRTPLMVRYPPSVKAGSVSNAFAMNLDFAPTLLDYAGVKIPADMQGLSLRPVLDNAGKSPENWRKAVYYHYYEFPSWHMVKRHYGIRTERYKLIHFYNDIDEWELYDMQKDPHEMQNLYNDKAYEPIIKDLKVQMKKLQVQYKDTNPTEAL
notes: as for B1
- desulfation of unsaturated heparin disaccharides [2]: None of the unsaturated disaccharides were desulfated
- retention of enzyme activity on storage [3]: Full enzyme activity was retained for several months
- activity remaining relative to the zero NaCl control ([4]; 1 M NaCl): less than 20%
